Source: PMC5645147, “Binding of a C-type lectin’s coiled-coil domain to the Domeless receptor directly activates the JAK/STAT pathway in the shrimp immune response to bacterial infection”

Target: T1, native STAT, LPS-challenged shrimp (Marsupenaeus japonicus (kuruma shrimp), UniProt D0VYJ1 1-801)
T1 sequence: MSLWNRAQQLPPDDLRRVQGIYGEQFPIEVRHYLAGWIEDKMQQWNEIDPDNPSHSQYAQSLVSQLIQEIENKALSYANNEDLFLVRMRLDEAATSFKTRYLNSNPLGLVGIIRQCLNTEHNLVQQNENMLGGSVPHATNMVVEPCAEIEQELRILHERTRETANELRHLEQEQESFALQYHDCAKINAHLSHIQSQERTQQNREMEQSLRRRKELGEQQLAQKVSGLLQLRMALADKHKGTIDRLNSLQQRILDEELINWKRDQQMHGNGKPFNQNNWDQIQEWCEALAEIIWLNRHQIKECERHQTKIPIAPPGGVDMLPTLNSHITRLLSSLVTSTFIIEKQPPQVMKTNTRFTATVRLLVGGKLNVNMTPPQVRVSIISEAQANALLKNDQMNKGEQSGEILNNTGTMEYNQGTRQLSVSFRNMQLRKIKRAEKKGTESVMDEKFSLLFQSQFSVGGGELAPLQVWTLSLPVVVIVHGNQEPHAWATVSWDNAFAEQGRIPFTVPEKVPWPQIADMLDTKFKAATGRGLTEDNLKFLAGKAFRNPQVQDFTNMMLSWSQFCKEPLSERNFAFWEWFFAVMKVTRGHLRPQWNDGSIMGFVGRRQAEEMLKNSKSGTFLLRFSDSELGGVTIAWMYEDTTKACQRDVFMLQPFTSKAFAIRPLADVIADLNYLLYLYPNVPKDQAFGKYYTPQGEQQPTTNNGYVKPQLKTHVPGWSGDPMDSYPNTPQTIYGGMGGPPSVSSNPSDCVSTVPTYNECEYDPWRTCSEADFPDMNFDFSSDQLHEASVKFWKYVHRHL
Experiment: EMSA; STAT from LPS-injected shrimp; binding increased; 2 ug protein, 20 fmol Dig-probe, Beyotime EMSA binding buffer (from 5x; composition and pH not stated), 20 min with probe, room temperature (stated for competition); 6% PAGE, 0.5x TBE
Details: chain copies: 2, blunt

B1: CruI-1 promoter STAT probe (dsDNA)
DNA 1: GCGTAAGGTTTTCTTGGAATA
DNA 2: TATTCCAAGAAAACCTTACGC
binding result: binds
